Tests used:
[1] = molecular target: T1, HIF-1α 1-350;HIF-1β (ARNT) 1-474 (human?;human?, UniProt Q16665;P27540 1-350;1-474, |); assay: EMSA; EMSA: Tris-HCl (concentration and pH not in material), 50 mM KCl, 50 mM NaCl, 5 mM DTT, 1 mM MgCl2, 1 mM EDTA, 10% glycerol, 5 µg BSA, 25 ng poly dI-dC; 30 min
[2] = molecular target: HIF-2α (EPAS1) 1-351;HIF-1β (ARNT) 1-474 (human?;human?, UniProt Q99814;P27540 1-351;1-474, |); assay: as above
[3] = molecular target: T1, HIF-1α 1-350;HIF-1β (ARNT) 1-474; assay: competition; unlabelled DNA titrated against labelled probe N1 (EMSA); EMSA: Tris-HCl (concentration and pH not in material), 50 mM KCl, 50 mM NaCl, 5 mM DTT, 1 mM MgCl2, 1 mM EDTA, 10% glycerol, 5 µg BSA, 25 ng poly dI-dC; 30 min

Binder	binding result [1]	binding result [2]	binding result [3]
EMSA HRE probe (human EPO enhancer) (dsDNA) DNA 1: GGCTGGGCCTACGTGCTGTCTCACACAGCC DNA 2: GGCTGTGTGAGACAGCACGTAGGCCCAGCC	binds	binds	
unlabelled HRE competitor DNA (dsDNA) DNA 1: GGCTGGGCCTACGTGCTGTCTCACACAGCC DNA 2: GGCTGTGTGAGACAGCACGTAGGCCCAGCC			binds

Reference: publication PMC3715890
